pIC50, pKd: −log10 of the molar value.
Legend:
[1] = biological target: T1, CD40 (Homo sapiens, UniProt P25942); test: Inhibition of CD40 reporter gene cell activity (HEK-Blue CD40L cells), humanized antibodies; type: cell-based; set-up: host or cells: HEK-Blue CD40L cells
Experimental: HEK-Blue CD40L cells were purchased from Invivogen (Cat. #hkb-cd40). The cells were stably transfected with the human CD40 gene and the NF-kB-mediated SEAP genome. The activation level of the CD40 signaling pathway can be characterized by measuring the amount of secreted SEAP in the supernatant using QUANTI-Blue, the substrate of SEAP. In the assays, the inhibitory effects of the CD40 antagonistic antibodies on the CD40L-induced HEK-Blue CD40L cell activation were measured, and the in vitro cell activity of the CD40 antagonistic antibodies was assessed based on IC50.
HEK-Blue CD40L cells were cultured in a DMEM medium containing 10% FBS, 100 μg/mL Normocin, 100 μg/mL Zeocin, and 30 µg/mL Blasticidin, with 2-3 passages a week. HEK-Blue CD40L cells were plated at 5E4 cells/well into a 96-well cell culture plate (the medium was DMEM containing 10% FBS and 100 μg/mL Normocin) and incubated overnight. […] CD40L-his (R&D, 2706-CL-025) and anti-His antibody (R&D, MAB050-500) were added, and the plate was incubated overnight. After cell centrifugation, 20 μL of the cell supernatant was transferred to a new 96-well white plate, and 180 μL of QUANTI-Blue substrate solution was added. […] The absorbance at 620 nm was measured with an Envision microplate reader, and IC50 values were calculated and used to assess the in vitro cell activity of the CD40 antagonistic antibodies.
Target sequence in this assay (P25942 21-277): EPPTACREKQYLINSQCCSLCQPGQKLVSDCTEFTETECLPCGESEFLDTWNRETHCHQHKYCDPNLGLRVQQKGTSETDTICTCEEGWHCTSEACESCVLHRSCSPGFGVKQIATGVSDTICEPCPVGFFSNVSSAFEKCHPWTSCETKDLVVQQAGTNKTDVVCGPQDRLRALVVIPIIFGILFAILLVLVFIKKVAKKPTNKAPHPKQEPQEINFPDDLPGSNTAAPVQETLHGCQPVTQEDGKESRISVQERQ

[2] = biological target: T1, CD40; test: SPR (Biacore) affinity of anti-CD40 antibodies for human CD40; type: binding; set-up: Glu21-Arg193; purchased Acrobiosystems Inc. CD0-H5228; settings: mobile phase Human CD40
Experimental: The test antibody was affinity-captured on an anti-human Fc chip, and a series of concentrations of His-tagged human or cynomolgus monkey CD40 antigen were allowed to flow over the chip surface. Reaction signals were detected in real time using a Biacore instrument, and thus association and dissociation curves were obtained. The buffer used in the experiment was HBS-EP+10× buffer solution (Cat. #BR-1006-69, GE) diluted to 1×(pH 7.4) with D. I. Water. Fitting was performed on the data obtained from the experiment using a (1:1) Binding model to obtain affinity values.
Target sequence in this assay (P25942 21-193): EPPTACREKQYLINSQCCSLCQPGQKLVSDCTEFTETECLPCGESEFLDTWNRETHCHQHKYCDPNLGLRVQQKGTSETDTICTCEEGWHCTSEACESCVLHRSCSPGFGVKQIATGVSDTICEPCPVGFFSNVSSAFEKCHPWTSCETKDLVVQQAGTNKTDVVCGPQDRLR

[3] = biological target: T1, CD40; test: DC cell activation assay system (monocyte-derived DC, CD40L-induced CD80/CD86, IL-12/23 p40, TNFα); type: cell-based; set-up: endogenous in cells; host or cells: human PBMCs (B cells); DCs differentiated from human CD14+ monocytes
Excerpt: CD40 is highly expressed on dendritic cells (DCs), and CD40L, upon binding to CD40, can induce DC activation, up-regulate the expression of multiple activation markers on the DC cell surface, and promote the secretion of multiple inflammatory factors from DCs, further amplifying immune responses. CD40 antagonistic antibodies block the binding of CD40L to CD40, thereby eliminating the immune activation process of DC cells.
Monocytes were sorted and enriched from fresh primary human peripheral blood PBMCs using the EsaySep™ human CD14 sorting kit (Stemcell, 19359), and differentiated for 6 days with RPMI-1640 medium (10% FBS and 1% penicillin-streptomycin), 50 ng/ml IL-4 (PeproTech, 200-04), and 50 ng/mL GM-CSF (PeproTech, 300-03). On day 7, the differentiated DC cells were plated at 1E5/well into a 96-well cell culture plate. Serially diluted test antibodies were added to the wells, and the cells were co-incubated at 37° C. in 5% CO2 for 0.5 h. CD40L-his and an anti-His antibody were then added to each well at final concentrations. After 48 h of culture, the level of DC cell activation was measured by flow cytometry: after centrifugation, the supernatant was removed, and the cells were washed twice with FACS buffer (PBS+2% FBS) and stained at room temperature for 15 min with 100 μL of Fixable viability dye EF780 (Invitrogen, 65086514) diluted at 1:1000. The cells were washed twice and then blocked at room temperature for 10 min with 100 μL of human Fc blocker (BD, 564220) diluted at 1:200. After centrifugation, the cells were incubated at 4° C. for 0.5 h with flow cytometry antibodies (Alexa Fluor® 700 anti-human CD11c (Biolegend, 337220), Brilliant Violet 421™ anti-human CD80 (Biolegend, 305221), and APC anti-human CD86 (Biolegend, 305412)) diluted at 1:200. After centrifugation, the supernatant was removed, the cells were washed twice with FACS buffer and then resuspended in 200 μL of PBS, and the fluorescence intensity on the cell surface was measured by a flow cytometer (BD FACS Celesta).
In addition, the level of cytokine secretion in the supernatant was measured after 24 h (TNFα, Cisbio, 62[…]) and 48 h (IL-12/23 p40, Novus, VAL121) of culture.
With reference to the method in Example 11, the inhibitory activity of the anti-CD40 antibody 9E6-L4H2-AAYTE carrying the AAYTE mutation in the Fc in the DC cell activation assay system was measured.
Target sequence in this assay (P25942 21-277): as the sequence (P25942 21-277) above

For “CFZ533: anti-CD40 antagonistic antibody CFZ533 (i.e., iscalimab), positive control, variable regions from U.S. Pat. No. 8,277,810B”, the pIC50 ([1]; Experiment 1) was 9.44, the pIC50 ([1]; Experiment 2) was 9.46 and the “Ka” value [2] was 688000 M⁻¹ s⁻¹. The pKd [2] was 9.69, the “koff (dissociation rate constant, 1/s)” value [2] was 0.000141 s⁻¹ and the IC50 ([3]; 48 h, read-out: IC50 (nM) in DC cell activation assay system, CD80 MFI) was 1.19 nM. It also gave an IC50 ([3]; 48 h, read-out: IC50 (nM) in DC cell activation assay system, CD86 MFI) of 1.93 nM, an IC50 ([3]; supernatant, 24 h, read-out: IC50 (nM) in DC cell activation assay system, TNFα) of 0.35 nM and an IC50 ([3]; supernatant, 48 h, read-out: IC50 (nM) in DC cell activation assay system, IL-12/23 p40) of 0.68 nM.

From US20260207759A1, “COMPOSITION OF CD40-BINDING MOLECULE AND PHARMACEUTICAL USE THEREOF” (SUZHOU SUNCADIA BIOPHARMACEUTICALS CO., LTD., priority 2022, published 2026)
